Results reported in publication PMC7817217 (2020).

Biological target: SARS-CoV-2 spike protein receptor binding domain (RBD) (SARS-CoV-2, UniProt P0DTC2 319-541)
Assay: SPR

B1: bACE2-Rm residues 19 to 615 fused to the mouse Fc tag (bACE2-Rm-mFc) (Fc fusion)
chain: STTEDEAKKFLDKFNSKAEDLSYESSLASWDYNTNISDENVQKMDEAGAKWSAFYEEQSKLAKNYPLEEIQNDTVKRQLQILQQSGSPVLSEDKSKRLNSILNAMSTIYSTGKVCKPNNPQECLLLEPGLDNIMGTSKDYNERLWAWEGWRAEVGKQLRPLYEEYVVLKNEMARGYHYEDYGDYWRRDYETEESSGPGYSRDQLMKDVDRIFTEIKPLYEHLHAYVRAKLMDTYPLHISPTGCLPAHLLGDMWGRFWTNLYPLTVPFGQKPNIDVTDAMLNQGWDANRIFKEAEKFFVSVSLPKMTEGFWNKSMLTEPGDGRKVVCHPTAWDLGKGDFRIKMCTKVTMEDFLTAHHEMGHIQYDMAYASQPYLLRNGANEGFHEAVGEVMSLSVATPKHLKTMGLLSPDFREDDETEINFLLKQALNIVGTLPFTYMLEKWRWMVFKGEIPKEEWMKKWWEMKREIVGVVEPVPHDETYCDPASLFHVANDYSFIRYYTRTIFEFQFHEALCRIAQHNGPLHKCDISNSTDAGKKLHQMLSVGKSQAWTKTLEDIVDSRNMDVGPLLRYFKPLYTWLQEQNRKSYVGWNTDWSPYAD
B1 was tested, and the Kd was 500 nM.
